The text below walks through data of patent US20260209323A1 (WHITEHEAD INSTITUTE FOR BIOMEDICAL RE SEARCH, published 2026).

Data set [1] deals with T1, human gasdermin D (GSDMD), full length (human, UniProt P57764 1-484, chemically biotinylated (sites not given) in the SPR experiments).
T1 construct: Used in SPR (biotinylated), nanoDSF and the liposome assay; the same entry is used for endogenous GSDMD of THP-1 cells; also called wild type, human GSDMD; GSDMD 1-484
T1 sequence: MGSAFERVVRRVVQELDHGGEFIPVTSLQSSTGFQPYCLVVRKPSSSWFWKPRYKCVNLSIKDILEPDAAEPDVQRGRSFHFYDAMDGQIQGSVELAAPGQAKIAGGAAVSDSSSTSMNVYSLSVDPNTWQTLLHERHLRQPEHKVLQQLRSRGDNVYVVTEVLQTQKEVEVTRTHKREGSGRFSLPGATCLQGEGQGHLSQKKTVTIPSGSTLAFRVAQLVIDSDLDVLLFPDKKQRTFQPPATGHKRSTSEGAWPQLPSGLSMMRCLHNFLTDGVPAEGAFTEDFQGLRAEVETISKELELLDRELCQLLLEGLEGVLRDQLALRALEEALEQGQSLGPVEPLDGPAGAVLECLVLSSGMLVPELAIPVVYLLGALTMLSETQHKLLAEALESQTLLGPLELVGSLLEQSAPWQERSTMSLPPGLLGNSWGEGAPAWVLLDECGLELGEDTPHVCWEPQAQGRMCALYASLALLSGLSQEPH
The data set is described as follows: nanoDSF thermal shift, equimolar GSDMD and nanobody. (In DSF a fluorescence change marks the thermal transition of the protein.)

Data set [2] concerns the target T1, human gasdermin D (GSDMD), full length. Put plainly: nanoDSF thermal shift, 5 µM GSDMD + 5 µM VHH; SD 0.5 °C; GSDMD alone 50.2 °C (SD 0.3).
Method: (§1) One representative out of three experiments is shown. d, Unfolding temperatures of GSDMD, the nanobodies and GSDMD-nanobody complexes were determined using nanoDSF. The unfolding temperatures of GSDMD at 5 μM and the GSDMD nanobody complexes after addition of 5 μM nanobody are shown. N=x, data represented with SD. e, Unfolding temperatures of GSDMD and GSDMD-nanobody complexes.
(§2) The thermal stability of the nanobodies and their impact on the thermostability of GSDMD was further analyzed using a thermal shift assay by nano-differential scanning fluorimetry (FIG. 11D, E and FIG. 18).
Data set [3] has the same target. Put plainly: SPR (Biacore 8K), chemically biotinylated GSDMD immobilised, VHH as analyte, multi-cycle kinetics, 1:1 fit.
Method: (§3) Chemically biotinylated GSDMD was immobilized on a sensor chip and nanobodies were injected as analytes at the indicated concentrations for 120 s, followed by dissociation for 300 s. Dissociation constants (KDs) were determined from the association and dissociation fits by applying a 1:1 binding model. d, Epitope binning assay.
(§4) Surface plasmon resonance experiments were performed using a Biacore 8K instrument (GE Healthcare). The flow system was cleaned using the maintenance “Desorb” function (Desorb Kit, GE Healthcare). The system was flushed with running buffer (20 mM HEPES (pH 8.0), 200 mM NaCl, 5 mM DTT, 0.05% Tween20) and all steps were performed at 25° C. chip temperature. Chemically biotinylated GSDMD at a concentration of 100 nM was immobilized for 180 s on the flow cell 2 of a Series S Sensor Chip CAP using a biotin capture kit and a flow rate of 30 μl/min. The system was washed for 600 s with running buffer with a flow rate of 30 μl/min. Binding affinities were determined using multi-cycle kinetics. […] The association step was carried out for 120 s and the dissociation step for 300 s.
The target is the same in data set [4]. The data set is described as follows: nanoDSF titration, 5 µM GSDMD + 5 µM VHH; SD 0.5; GSDMD 5 µM alone 50.2 °C, VHH-6 50 µM alone 42.6 and 53.5 °C.
Method: (§5) The melting temperatures of GSDMD and the nanobodies alone were determined at concentrations of 5 and 50 μM, respectively.
For a further data set, the target named is T2, GSDMD^CT (human, UniProt P57764).
T2 construct: domain fused to Renilla luciferase; LUMIER bait; also called GSDMD^CT-Renilla luciferase fusion
T2 sequence (single chain, looked up): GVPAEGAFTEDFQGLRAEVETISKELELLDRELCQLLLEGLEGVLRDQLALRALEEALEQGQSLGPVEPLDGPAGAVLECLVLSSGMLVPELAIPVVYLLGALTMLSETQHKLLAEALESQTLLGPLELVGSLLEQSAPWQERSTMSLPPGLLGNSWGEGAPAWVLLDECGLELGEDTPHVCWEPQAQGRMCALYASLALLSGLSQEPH
The data set is described as follows: LUMIER co-IP in HEK293T, HA-tagged VHH with Renilla luciferase fusion.

The target of data set [5] is T1, human gasdermin D (GSDMD), full length. Put plainly: nanoDSF thermal shift, 5 µM GSDMD + 5 µM VHH; SD 0.8 °C; GSDMD alone 50.2 °C (SD 0.3).
Method: as §1, §2
Data set [6] shares this target. Put plainly: SPR (Biacore 8K), biotinylated GSDMD immobilized, nanobody as analyte, multi-cycle kinetics, 1:1 model.
Method: as §3, §4
Data set [7] shares this target. The data set is described as follows: nanoDSF titration, 5 µM GSDMD + 5 µM VHH; SD 0.8; GSDMD 5 µM alone 50.2 °C, VHH-5 50 µM alone 58.5 °C.
Method: as §5
Data set [8] shares this target. The data set is described as follows: nanoDSF thermal shift, 5 µM GSDMD + 5 µM VHH; SD 1.3 °C; GSDMD alone 50.2 °C (SD 0.3).
Method: as §1, §2
For data set [9] the target is unchanged. Put plainly: nanoDSF titration, 5 µM GSDMD + 5 µM VHH; SD 1.3; GSDMD 5 µM alone 50.2 °C, VHH-3 50 µM alone 59.1 °C.
Method: as §5
Another data set addresses T3, murine GsdmD (murine, UniProt Q9D8T2 1-487).
T3 construct: not shown: Renilla luciferase
T3 sequence (looked up): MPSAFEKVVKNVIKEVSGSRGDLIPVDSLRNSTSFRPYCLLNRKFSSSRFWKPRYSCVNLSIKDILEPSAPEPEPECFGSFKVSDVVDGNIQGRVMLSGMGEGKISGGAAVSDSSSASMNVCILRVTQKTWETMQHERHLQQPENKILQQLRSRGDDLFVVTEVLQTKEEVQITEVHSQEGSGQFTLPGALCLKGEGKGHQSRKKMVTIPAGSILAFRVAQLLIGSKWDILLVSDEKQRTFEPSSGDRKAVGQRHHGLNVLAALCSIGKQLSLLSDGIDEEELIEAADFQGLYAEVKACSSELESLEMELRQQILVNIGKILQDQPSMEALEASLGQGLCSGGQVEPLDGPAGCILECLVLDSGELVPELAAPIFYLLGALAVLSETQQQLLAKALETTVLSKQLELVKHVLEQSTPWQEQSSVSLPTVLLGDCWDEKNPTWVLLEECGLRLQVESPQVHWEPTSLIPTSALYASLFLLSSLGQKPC
Put plainly: LUMIER co-IP in HEK293T, HA-tagged VHH with Renilla luciferase fusion.

For data set [10], the target named is T1, human gasdermin D (GSDMD), full length. The data set is described as follows: nanoDSF thermal shift, 5 µM GSDMD + 5 µM VHH; SD 1.0 °C; GSDMD alone 50.2 °C (SD 0.3).
Method: as §1, §2
Data set [11] has the same target. The data set is described as follows: nanoDSF titration, 5 µM GSDMD + 5 µM VHH; SD 1.0; GSDMD 5 µM alone 50.2 °C, VHH-2 50 µM alone 58.0 °C.
Method: as §5
Data set [12] has the same target. The data set is described as follows: nanoDSF titration, 5 µM GSDMD + 5 µM VHH; SD 1.0; GSDMD 5 µM alone 50.2 °C, VHH-1 50 µM alone 67.6 °C.
Method: as §5

B1: VHHGSDMD-6 (VHH)
VHH: QVQLVETGGGLVQPGGSLRLSCTASGFIFSANQMNWVRQAPGKGLEWLSGISTRGDTTSYADSVKGRFTISRDNAKNTLYLQMNSLQPDDTAVYFCARVCIRGPEPKLRCDDWGQGTQVTVSS
notes: Alpaca single-domain antibody; The crystal model holds VHH-6 residues 1-123; also called VHH AK-G08; VHH-6; not shown: C-terminal HA-His tag (recombinant protein: SPR, nanoDSF, liposome assay, crystal, ELISA)
The term Kd denotes the equilibrium constant for the complex coming apart. Low values mean higher affinity, high ones lower affinity. Regarding B1, the “increase of the thermal stability of GSDMD” value (“increase” below) in data set [1] is 4.2 °C. Moreover, the “Tm of GSDMD with the VHH” value in data set [2] and in data set [4] was 54.4 °C each time. For the same molecule, the dissociation constant (Kd) in data set [3] was 280 nM.

B2: VHHGSDMD-5 (VHH)
VHH: QVQLVETGGGLVQPGGSLRLSCAASGFVFSINPMNWYRQAPGKERELVAYISMRGSTTNYADSVKGRFIISRDNAKNTLYLQMNSLKPEDTAVYYCNAPSRSVWGQGTQVTVSS
notes: Alpaca single-domain antibody; also called VHH AK-G04; VHH-5; not shown: C-terminal HA-His tag (recombinant protein: SPR, nanoDSF, liposome assay, ELISA) or HA tag (LUMIER)
Consider B2, for which the “decrease of the melting temperature of GSDMD” value in data set [1] is at most 2.5 °C. Moreover, in the data set with GSDMD^CT, the binding result is given as “no binding”. The “Tm of GSDMD with the VHH” value in data set [5] and in data set [7] was 48.8 °C throughout. In addition, in [6], the Kd is 4.14 nM.

B3: VHHGSDMD-3 (VHH)
VHH: QVQLVETGGGLVQPGGSLRLSCAASGFTLDIYNMGWFRQAPGKEREGVSCISSRYGTSTYYADSVKGRFTISRDNAKNTVYLQMNNLKPEDTAVYYCATVSWRFTTNQDVCLTPSVSGYWGQGTQVTVSS
notes: Alpaca single-domain antibody; One entry is used for all tag variants; also called VHH AK-H12; VHH-3; not shown: C-terminal tag that differs by assay: LPETG-His (recombinant protein: SPR, nanoDSF, liposome assay), HA-His6 (ELISA), HA
Consider B3, for which the “increase” value in data set [1] was at most 9.4 °C. The binding result with GSDMD^CT is “no binding”. The “Tm of GSDMD with the VHH” value in data set [8] and in data set [9] was 54.1 °C in each case. In data set [6], this molecule registered a Kd of 2.19 nM.

B4: VHHGSDMD-2 (VHH)
VHH: QVQLVESGGGLVQPGGSLRLSCVDSRSWINVYGANWYRQAPGKERELVAALTSGGTTNYADSVKGRFTISRDNAKNTVYLQMRDLKPEDTAVYYCNLERYTGSSVYPWGQGTQVTVSS
notes: Alpaca single-domain antibody; The crystal model holds VHH-2 residues 1-118; One entry is used for all tag variants; also called VHH AK-C03; VHH-2; not shown: C-terminal tag that differs by assay: LPETG-His (recombinant protein: SPR, nanoDSF, liposome assay, crystal), HA-His6 (E)
As for B4, the “increase” value in data set [1] was at most 9.4 °C. In addition, the binding result with GSDMD^CT and in the data set with murine GsdmD was “no binding” in each case. For the same molecule, the “Tm of GSDMD with the VHH” value in data set [10] and in data set [11] was 56 °C each time. The affinity in data set [6], expressed as Kd, was 8.24 nM.

B5: VHH-4 (VHH)
VHH: QVQLVESGGGLVQPGGSLRLSCAASGFTLDRHAIAWFRQAPGLEREGVVCTSSSGAITNTADSVKGRFTISRDDAKNTVYLQMNSLKPEDTAIYYCAVRELWTVQPICEPRPRAYAYWGQGTQVTVSS
notes: Alpaca single-domain antibody; also called VHH AK-C10; GSDMD4; not shown: C-terminal HA-His tag (recombinant protein: SPR, nanoDSF, liposome assay, ELISA)
Consider B5, for which the binding result with GSDMD^CT was “no binding”.

B6: VHHGSDMD-1 (VHH)
VHH: QVQLVESGGALVQPGGSLRLSCSASGFTFSKYLMSWYRQAPGKERELVATITTAGGNTNYADSVKGRFTISRDNAKNTVYLQMNSLKPEDTAVYYCKASGGTIRTVNETYWGQGTQVTVSS
notes: Alpaca single-domain antibody; One entry is used for all tag variants; also called VHH AK-A04; VHH-1; not shown: C-terminal tag that differs by assay: LPETG-His (recombinant protein: SPR, nanoDSF, liposome assay), HA-His6 (ELISA), HA
As to B6, in data set [1], the “increase” value was at most 9.4 °C. Further, the binding result with GSDMD^CT and with murine GsdmD was “no binding” throughout. In addition, the “Tm of GSDMD with the VHH” value in data set [10] and in [12] was 59.6 °C each time. Also, in [6], the Kd stood at 0.55 nM.
